Test results published in patent US9944700B2, “Notch2 binding molecules for treating respiratory diseases” (NOVARTIS AG, priority 2013, dated 2018).

B1: IL-29: secreted, recombinant human protein profiled in the bronchosphere assay (protein, UniProt Q8IU54 20-200, looked up)
Interferon lambda-1: GPVPTSKPTTTGKGCHIGRFKSLSPQELASFKKARDALEESLKLKNWSCSSPVFPGNWDLRLLQVRERPVALEAELALTLKVLEAAAGPALEDVLDQPLHTLHHILSQLQACIQPQPTAGPRPRGRLHHWLHRLQEAPKKESAGCLEASVTFNLFRLLTRDLKYVADGNLCLRTSTHPEST
B2: FGF-7: secreted, recombinant human protein profiled in the bronchosphere assay (protein, UniProt P21781 32-194, looked up)
Fibroblast growth factor 7: CNDMTPEQMATNVNCSSPERHTRSYDYMEGGDIRVRRLFCRTQWYLRIDKRGKVKGTQEMKNNYNIMEIRTVAVGIVAIKGVESEFYLAMNKEGKLYAKKECNEDCNFKELILENHYNTYASAKWTHNGGEMFVALNQKGIPVRGKKTKKEQKTAHFLPMAIT
B3: IL-28A: secreted, recombinant human protein profiled in the bronchosphere assay (protein, UniProt Q8IZJ0 26-200, looked up)
Interferon lambda-2: VPVARLHGALPDARGCHIAQFKSLSPQELQAFKRAKDALEESLLLKDCRCHSRLFPRTWDLRQLQVRERPMALEAELALTLKVLEATADTDPALVDVLDQPLHTLHHILSQFRACIQPQPTAGPRTRGRLHHWLYRLQEAPKKESPGCLEASVTFNLFRLLTRDLNCVASGDLCV
B4: IL-28B: secreted, recombinant human protein profiled in the bronchosphere assay (protein, UniProt Q8IZI9 22-196, looked up)
Interferon lambda-3: VPVARLRGALPDARGCHIAQFKSLSPQELQAFKRAKDALEESLLLKDCKCRSRLFPRTWDLRQLQVRERPVALEAELALTLKVLEATADTDPALGDVLDQPLHTLHHILSQLRACIQPQPTAGPRTRGRLHHWLHRLQEAPKKESPGCLEASVTFNLFRLLTRDLNCVASGDLCV
B5: IL-1a: secreted, recombinant human protein profiled in the bronchosphere assay (protein, UniProt P01583 113-271, looked up)
Interleukin-1 alpha: SAPFSFLSNVKYNFMRIIKYEFILNDALNQSIIRANDQYLTAAALHNLDEAVKFDMGAYKSSKDDAKITVILRISKTQLYVTAQDEDQPVLLKEMPEIPKTITGSETNLLFFWETHGTKNYFTSVAHPNLFIATKQDYWVCLAGGPPSITDFQILENQA

Test system: bronchospheres (human bronchial epithelial cells)
Test: Bronchosphere assay of secreted recombinant human proteins, qPCR of cell type markers and immunostaining
Assay type: cell-based
Conditions: for change in expression of at least one cell-type marker, initial screen: 55 proteins tested at 3.3, 10 and 30 ng/mL; for expression of both of the ciliated cell markers: markers FOXJ1, DNAI2; for expression of at least two of the goblet cell markers: markers MUC5AC, MUC5B, FOXA3; for change in expression of at least one of the cell-type markers, on validation: expanded concentration range
Procedure: Human bronchial epithelial (HBE) cells and culture media were obtained from Lonza. Air-liquid interface cultures using passage 2 (P2) cells were performed as previously described (Danahay, H. et al., American journal of physiology. Lung cellular and molecular physiology 282, L226-236 (2002)). For three-dimensional culturing of HBE cells, P1 cells were trypsinized and resuspended (30,000 cells/ml) in HBE differentiation media containing 5% growth factor-reduced Matrigel (BD Biosciences). 20 μl of suspension was plated in each well of a 384-well plate (Greiner) pre-coated with 10 μl of a 25% solution of Matrigel (BD Biosciences) in HBE differentiation media. Wells were fed or treated at day 2 and day 8 of culture by adding 30 μl of differentiation media containing the appropriate treatment. Three-dimensional cultures were analyzed at the time points indicated.
Immunofluorescence of HBEC bronchospheres was performed as described previously for MCF10A cysts (Debnath, J. et al., Methods 30, 256-268 (2003) with the following modifications. After incubation with fluorescence-conjugated secondary antibodies, DNA was stained with a 1:1 mix of PBS and ProLong gold antifade containing DAPI. Confocal microscopy was performed at room temperature on a microscope (Zeiss LSM510 Meta) using an EC Plan-Neofluar 10×/0.30 dry objective (Zeiss), an EC Plan-Neofluor 20×/0.5 dry objective (Zeiss), a C-Apochromat 40×/1.2 W corr (Zeiss), or a C-Apochromat 63×/1.2 W Corr objective (Zeiss). Images were collected with Zen confocal software (Zeiss). Scale bars were added, and images were processed using Zen (Zeiss) and Photoshop (Adobe). Air-liquid interface (ALI) cultures were processed for immunofluorescence analysis after 14 days of culture at ALI by rinsing the apical surface of each filter with PBS, and then fixing in 4% paraformaldehyde for 4 hours. Filters were washed with IF buffer (130 mM NaCl, 7 mM Na2HPO4, 3.5 mM NaH2PO4, 7.7 mM NaN3, 0.1% bovine serum albumin, 0.2% Triton X-100, 0.05% Tween-20), blocked with IF wash containing 10% goat serum, and stained with primary antibody in IF wash containing 10% goat serum overnight at 4° C. Secondary antibodies were used at a 1:200 dilution in IF buffer containing 10% goat serum. To quantify the total staining area of ALI cultures, 10×13 images were collected with a plan Neofluar 10×0.3 NA Ph1 objective (EC; Carl Zeiss, Inc.) on a microscope (Axiovert 200; Carl Zeiss, Inc.) equipped with a motorized stage and a camera (Orca-ER-1394; Hamamatsu Photonics) controlled by Axiovision software (Carl Zeiss, Inc.) and used to generate a single composite image using the MOSAIX function in Zeiss Axiovision. Quantification of the total staining area was performed with ImageJ. Two to three regions of each ALI culture were punched out with a 4 mm biopsy punch (Miltex, Inc.) and mounted in ProLong gold antifade containing DAPI for imaging by confocal microscopy on a microscope (Axiovert 200; Carl Zeiss, Inc.) equipped with a motorized stage, a Yokogawa CSU-X1 spinning disc head, and an EMCCD camera (Evolve 512, Photometrics), with a Plan-Apochromat 100×/1.4 Oil DIC objective (Zeiss). Cells positive for MUC5AC, MUC5B, or cilia (acetylated α-Tubulin) staining were counted manually. For time-lapse video microscopy, HBECs were imaged at the indicated times during bronchosphere development at 37° C. with a plan Neofluar 10×0.3 NA Ph1 objective (EC; Carl Zeiss, Inc.). Images were taken every 5 min for the indicated time period. Annotations (time stamp and scale bar) were added and videos were assembled using Axiovision software.
RNA was isolated from 3D bronchosphere cultures with Trizol (Invitrogen), using manufacturer's specifications. To isolate RNA from mouse tissue, approximately 20 mg of tissue was placed in a 1.5 ml eppendorf tube with 1 ml of Buffer RLT Plus (Qiagen). A 5 mm stainless steel bead (Qiagen) was added to the tube, and the tissue was sheared using a Tissue Lyser II (Qiagen).

[1] = IL-13 treated bronchospheres, immunostaining, FIG. 2c
[2] = IL-13 treatment between days 2 and 14 after seeding, qPCR, FIG. 2a

Molecule | change in expression of at least one cell-type marker, initial screen | expression of both of the ciliated cell markers | expression of at least two of the goblet cell markers | change in expression of at least one of the cell-type markers, on validation | acetylated α-tubulin positive structures [1] | secreted mucins in the central lumen [1] | ciliated cell marker expression [2] | expression of markers of goblet cells [2] | concentrations toxic and disrupting bronchosphere formation (data not shown) [ng/mL] | expression of MUC5B (bronchosphere assay) | effect on any of the other markers (markers other than MUC5B)
IL1-β: secreted, recombinant human protein profiled in the bronchosphere assay | concentration-dependent change | attenuated | enhanced | robust change | – | – | – | – | – | – | –
IL-13: secreted, recombinant human protein (inflammatory cytokine) profiled in the bronchosphere assay | concentration-dependent change | attenuated | enhanced | robust change | lack | accumulation | declined | clear enhancement | > 3 | – | –
IFN-γ: secreted, recombinant human protein profiled in the bronchosphere assay | concentration-dependent change | attenuated | enhanced | robust change | – | – | – | – | – | – | –
B1 | concentration-dependent change | attenuated | enhanced | robust change | – | – | – | – | – | – | –
B2 | concentration-dependent change | – | – | – | – | – | – | – | – | enhanced | without affecting
B3 | concentration-dependent change | attenuated | enhanced | robust change | – | – | – | – | – | – | –
B4 | concentration-dependent change | attenuated | enhanced | robust change | – | – | – | – | – | – | –
B5 | concentration-dependent change | attenuated | enhanced | robust change | – | – | – | – | – | – | –
